This is an account of results in article PMC6131487.

For assay [1], the target named is UL25 of HSV-2 (component of the capsid-vertex-specific component, CVSC) (herpes simplex virus 2 strain MS) (UniProt P89448). Kind of assay: cryo-EM structure; HSV-2 (MS strain) C-capsids assembled in infected Vero cells, detergent-treated (1% NP-40) and purified on sucrose gradients, in PBS; icosahedral plus block-based reconstruction, 3.75 Å overall (CVSC map 4.3 Å, CVSC head about 10 Å).

Assay [2] concerns the target small capsid protein VP26 of HSV-2 (herpes simplex virus 2 strain MS) (UniProt P89458). The description is as above.

With “UL25 of HSV-2 (component of the capsid-vertex-specific component, CVSC) (from UniProt P89448 1-585) (natural protein)”, the stoichiometry N in assay [1] turned out to be 2. Consider “small capsid protein VP26 of HSV-2 (from UniProt P89458 1-112) (natural protein)”, for which, in assay [2], the stoichiometry N worked out at 6.

As a reminder, the stoichiometry N is a count of units in the complex or per binding partner.
